Results as given in patent US20040018977A1 (published 2004).

B1: CG51896-10, intracellular domain, aa 805-1047, Binding Domain (BD) fusion (other, not shown: large carriers)
chain: TKDMPPMGSPVIPTDLPLRASPSHIPSVVVLPITQQGYQHEYVDQPKMSEVAQMALEDQAATLEYKTIKEHLSSKSPNHGVNLVENLDSLPPKVPQREASLGPPGASLSQTGLSKRLEMHHSSSYGVDYKRSYPTNSLTRSHQATTLKRNNTNSSNSSHLSRNQSFGRGDNPPPAPQRVDSIQVHSSQPSGQAVTVSRQPSLNAYNSLTRSGLKRTPSLKPDVPPKPSFAPLSTSMKPNDACT
notes: also called NOV2r
B2: CG51896-10, intracellular domain, aa 690-1047, Binding Domain (BD) fusion (other)
chain: VCDHRRKDVAVVQRKEKELTHSRRGSMSSVTKLSGLFGDTQSKDPKPEAILTPLMHNGKLATPGNTAKMLIKADQHHLDLTALPTPESTPTLQQKRKPSRGSREWERNQNLINACTKDMPPMGSPVIPTDLPLRASPSHIPSVVVLPITQQGYQHEYVDQPKMSEVAQMALEDQAATLEYKTIKEHLSSKSPNHGVNLVENLDSLPPKVPQREASLGPPGASLSQTGLSKRLEMHHSSSYGVDYKRSYPTNSLTRSHQATTLKRNNTNSSNSSHLSRNQSFGRGDNPPPAPQRVDSIQVHSSQPSGQAVTVSRQPSLNAYNSLTRSGLKRTPSLKPDVPPKPSFAPLSTSMKPNDACT
notes: also called NOV2r
B3: CG51896-10, intracellular domain, aa 950-1047, Binding Domain (BD) fusion (other, not shown: large carriers)
chain: TLKRNNTNSSNSSHLSRNQSFGRGDNPPPAPQRVDSIQVHSSQPSGQAVTVSRQPSLNAYNSLTRSGLKRTPSLKPDVPPKPSFAPLSTSMKPNDACT
notes: also called NOV2r

Each binder was assayed against T1, NCK2, aa 1-380, Activation Domain (AD) fusion (human, UniProt O43639 1-380) (assay: yeast two-hybrid matrix mating assay, beta-gal read-out).
T1 construct: range 1-380; Also used for the sentences that name NCK2 as a partner of the cytoplasmic domain
T1 sequence (O43639 whole entry, the tested form may be a part): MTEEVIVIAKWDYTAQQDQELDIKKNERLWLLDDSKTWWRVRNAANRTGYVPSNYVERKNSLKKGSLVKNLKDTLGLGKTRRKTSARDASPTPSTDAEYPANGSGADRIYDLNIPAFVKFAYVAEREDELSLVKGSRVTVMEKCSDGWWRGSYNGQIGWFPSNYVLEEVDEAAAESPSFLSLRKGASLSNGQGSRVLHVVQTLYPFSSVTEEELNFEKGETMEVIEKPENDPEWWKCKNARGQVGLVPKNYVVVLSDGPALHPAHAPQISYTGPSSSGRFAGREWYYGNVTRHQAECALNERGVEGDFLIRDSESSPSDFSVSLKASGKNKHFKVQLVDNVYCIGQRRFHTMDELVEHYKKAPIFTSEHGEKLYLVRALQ
Protocol: Matrix Mating Haploid cells for the PathCalling matrix mating assay are grown up individually in 384 well plates using selective liquid media. After 1-2 days, the mating is done entirely in a nutrient rich media. The resulting diploid cells are then selected using a selective liquid media. The optical density (O.D.) of the diploid cells is measured using a spectrophotometer to measure and the cells are then transferred to a fresh plate for a Beta-gal assay. This assay is performed to determine if there is an interaction between the two proteins being tested. The Beta-gal assay is performed as follows:
2. The β-gal buffer is made using the following (per 384 well plate): 7.1 ml Sigma water, 7.5 ml 4X Z-buffer, 0.3 ml 20% IGEPAL, 30 mg CPRG, 75 μl Lyticase (10,000 U/ml) and 3.30 μl of β-gal buffer is added to each well of the plate made in step 1 using a multi-drop 384.
B1: binds.
B2: binds.
B3: binds.
